Reference: paper PMC10786891, “Massively parallel profiling of RNA-targeting CRISPR-Cas13d”

T1: EsCas13d, nuclease-dead (Eubacterium siraeum, UniProt B0MS50, R295A;H300A;R849A;H854A)
T1 sequence: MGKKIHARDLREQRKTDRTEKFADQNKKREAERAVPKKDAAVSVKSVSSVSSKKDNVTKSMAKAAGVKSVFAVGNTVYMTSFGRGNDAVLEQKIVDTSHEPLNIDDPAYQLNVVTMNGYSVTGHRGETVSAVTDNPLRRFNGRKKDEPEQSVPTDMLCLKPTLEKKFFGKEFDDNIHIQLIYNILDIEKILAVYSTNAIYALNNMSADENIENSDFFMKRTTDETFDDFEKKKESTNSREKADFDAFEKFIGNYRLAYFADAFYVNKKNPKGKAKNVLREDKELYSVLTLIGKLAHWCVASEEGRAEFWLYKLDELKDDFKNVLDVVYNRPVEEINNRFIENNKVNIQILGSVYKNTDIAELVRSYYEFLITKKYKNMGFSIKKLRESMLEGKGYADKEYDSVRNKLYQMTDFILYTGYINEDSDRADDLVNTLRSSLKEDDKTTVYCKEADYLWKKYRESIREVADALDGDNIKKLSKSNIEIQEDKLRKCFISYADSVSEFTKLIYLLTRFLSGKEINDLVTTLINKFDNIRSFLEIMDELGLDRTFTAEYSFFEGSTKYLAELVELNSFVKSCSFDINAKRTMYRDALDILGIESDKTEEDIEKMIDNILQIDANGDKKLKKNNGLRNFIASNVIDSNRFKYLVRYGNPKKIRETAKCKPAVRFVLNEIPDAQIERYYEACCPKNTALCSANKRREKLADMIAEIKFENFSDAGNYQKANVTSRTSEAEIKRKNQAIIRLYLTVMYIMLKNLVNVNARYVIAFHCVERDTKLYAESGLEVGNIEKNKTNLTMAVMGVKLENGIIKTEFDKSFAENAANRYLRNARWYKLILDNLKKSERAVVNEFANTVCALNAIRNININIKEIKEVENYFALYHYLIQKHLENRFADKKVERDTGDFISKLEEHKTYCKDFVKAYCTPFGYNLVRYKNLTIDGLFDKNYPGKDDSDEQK


The binders below were run against T1, EsCas13d, nuclease-dead (assay: crRNA (strand 1, pre-loaded); Mg2+; 40 mM Tris-HCl pH 7.5, 150 mM NaCl, 6 mM MgCl2, 1 mM DTT, 0.1% Tween-20, 0.2 mg/ml BSA; 25 C; 10 min per concentration, then washed). Details: tags: His6-TwinStrep-SUMO cleaved; N-terminal SNAP kept (SNAP-Surface 488); label: 3' end held by stalled T7 RNA polymerase.

Binder	Kd [nM]
target 1 insC 3' of 18,insU 3' of 12 (mixed) RNA 1: CACCCGUGCAAAAAUGCAGGGGUCUAAAACUGAGCGGAUAACCUCUCUAUGG RNA 2: GGGAAUGGAUCCACAUCUACGAAUUCGUACCAUACGAGAGGUUUAUCCGCUCACCGAGAUCGGAAGAGCACACGU	28.6 ± 1.7
target 1 A9G,U11G (mixed) RNA 1: CACCCGUGCAAAAAUGCAGGGGUCUAAAACUGAGCGGAUAACCUCUCUAUGG RNA 2: GGGAAUGGAUCCACAUCUACGAAUUCGUACCAUAGAGAGGGUGUCCGCUCACCGAGAUCGGAAGAGCACACGU	15.1 ± 0.7
target 1 insA 3' of 17,insC 3' of 13 (mixed) RNA 1: CACCCGUGCAAAAAUGCAGGGGUCUAAAACUGAGCGGAUAACCUCUCUAUGG RNA 2: GGGAAUGGAUCCACAUCUACGAAUUCGUACCAUAGAAGAGCGUUAUCCGCUCACCGAGAUCGGAAGAGCACACGU	35 ± 4
target 1 insA 3' of 22,insC 3' of 15 (mixed) RNA 1: CACCCGUGCAAAAAUGCAGGGGUCUAAAACUGAGCGGAUAACCUCUCUAUGG RNA 2: GGGAAUGGAUCCACAUCUACGAAUUCGUACACAUAGAGCAGGUUAUCCGCUCACCGAGAUCGGAAGAGCACACGU	28.5 ± 2.2
target 1 insC 3' of 9,insG 3' of 6 (mixed) RNA 1: CACCCGUGCAAAAAUGCAGGGGUCUAAAACUGAGCGGAUAACCUCUCUAUGG RNA 2: GGGAAUGGAUCCACAUCUACGAAUUCGUACCAUAGAGAGGUUACUCCGGCUCACCGAGAUCGGAAGAGCACACGU	14.4 ± 1.2
target 1 insC 3' of 20,insA 3' of 15 (mixed) RNA 1: CACCCGUGCAAAAAUGCAGGGGUCUAAAACUGAGCGGAUAACCUCUCUAUGG RNA 2: GGGAAUGGAUCCACAUCUACGAAUUCGUACCACUAGAGAAGGUUAUCCGCUCACCGAGAUCGGAAGAGCACACGU	12.2 ± 1.1
target 1 insU 3' of 12,insG 3' of 6 (mixed) RNA 1: CACCCGUGCAAAAAUGCAGGGGUCUAAAACUGAGCGGAUAACCUCUCUAUGG RNA 2: GGGAAUGGAUCCACAUCUACGAAUUCGUACCAUAGAGAGGUUUAUCCGGCUCACCGAGAUCGGAAGAGCACACGU	6.24 ± 0.17
target 1 A18U (mixed) RNA 1: CACCCGUGCAAAAAUGCAGGGGUCUAAAACUGAGCGGAUAACCUCUCUAUGG RNA 2: GGGAAUGGAUCCACAUCUACGAAUUCGUACCAUUGAGAGGUUAUCCGCUCACCGAGAUCGGAAGAGCACACGU	26.4 ± 1.2
target 1 insU 3' of 4,insU 3' of 1 (mixed) RNA 1: CACCCGUGCAAAAAUGCAGGGGUCUAAAACUGAGCGGAUAACCUCUCUAUGG RNA 2: GGGAAUGGAUCCACAUCUACGAAUUCGUACCAUAGAGAGGUUAUCCGCUUCAUCCGAGAUCGGAAGAGCACACGU	8.56 ± 0.33
target 1 insC 3' of 11,insA 3' of 8 (mixed) RNA 1: CACCCGUGCAAAAAUGCAGGGGUCUAAAACUGAGCGGAUAACCUCUCUAUGG RNA 2: GGGAAUGGAUCCACAUCUACGAAUUCGUACCAUAGAGAGGUCUAUACCGCUCACCGAGAUCGGAAGAGCACACGU	41.4 ± 3.2
target 1 insC 3' of 10,insG 3' of 8 (mixed) RNA 1: CACCCGUGCAAAAAUGCAGGGGUCUAAAACUGAGCGGAUAACCUCUCUAUGG RNA 2: GGGAAUGGAUCCACAUCUACGAAUUCGUACCAUAGAGAGGUUCAUGCCGCUCACCGAGAUCGGAAGAGCACACGU	15.7 ± 0.8
target 1 insA 3' of 21,insG 3' of 3 (mixed) RNA 1: CACCCGUGCAAAAAUGCAGGGGUCUAAAACUGAGCGGAUAACCUCUCUAUGG RNA 2: GGGAAUGGAUCCACAUCUACGAAUUCGUACCAAUAGAGAGGUUAUCCGCUGCACCGAGAUCGGAAGAGCACACGU	11.8 ± 0.6
target 1 insG 3' of 21,insA 3' of 8 (mixed) RNA 1: CACCCGUGCAAAAAUGCAGGGGUCUAAAACUGAGCGGAUAACCUCUCUAUGG RNA 2: GGGAAUGGAUCCACAUCUACGAAUUCGUACCGAUAGAGAGGUUAUACCGCUCACCGAGAUCGGAAGAGCACACGU	64 ± 11
target 1 A9C,U10G (mixed) RNA 1: CACCCGUGCAAAAAUGCAGGGGUCUAAAACUGAGCGGAUAACCUCUCUAUGG RNA 2: GGGAAUGGAUCCACAUCUACGAAUUCGUACCAUAGAGAGGUGCUCCGCUCACCGAGAUCGGAAGAGCACACGU	16.1 ± 0.6
target 1 insG 3' of 7,insU 3' of 2 (mixed) RNA 1: CACCCGUGCAAAAAUGCAGGGGUCUAAAACUGAGCGGAUAACCUCUCUAUGG RNA 2: GGGAAUGGAUCCACAUCUACGAAUUCGUACCAUAGAGAGGUUAUCGCGCUCUACCGAGAUCGGAAGAGCACACGU	9.6 ± 0.9
target 1 A1G,A18U (mixed) RNA 1: CACCCGUGCAAAAAUGCAGGGGUCUAAAACUGAGCGGAUAACCUCUCUAUGG RNA 2: GGGAAUGGAUCCACAUCUACGAAUUCGUACCAUUGAGAGGUUAUCCGCUCGCCGAGAUCGGAAGAGCACACGU	24.6 ± 1.7
target 1 G5U,G15U (mixed) RNA 1: CACCCGUGCAAAAAUGCAGGGGUCUAAAACUGAGCGGAUAACCUCUCUAUGG RNA 2: GGGAAUGGAUCCACAUCUACGAAUUCGUACCAUAGAUAGGUUAUCCUCUCACCGAGAUCGGAAGAGCACACGU	31 ± 4
target 1 A16U,G17A (mixed) RNA 1: CACCCGUGCAAAAAUGCAGGGGUCUAAAACUGAGCGGAUAACCUCUCUAUGG RNA 2: GGGAAUGGAUCCACAUCUACGAAUUCGUACCAUAAUGAGGUUAUCCGCUCACCGAGAUCGGAAGAGCACACGU	44 ± 6
target 1 A1C,A18U (mixed) RNA 1: CACCCGUGCAAAAAUGCAGGGGUCUAAAACUGAGCGGAUAACCUCUCUAUGG RNA 2: GGGAAUGGAUCCACAUCUACGAAUUCGUACCAUUGAGAGGUUAUCCGCUCCCCGAGAUCGGAAGAGCACACGU	~40
target 1 insC 3' of 19,insA 3' of 13 (mixed) RNA 1: CACCCGUGCAAAAAUGCAGGGGUCUAAAACUGAGCGGAUAACCUCUCUAUGG RNA 2: GGGAAUGGAUCCACAUCUACGAAUUCGUACCAUCAGAGAGAGUUAUCCGCUCACCGAGAUCGGAAGAGCACACGU	19.5 ± 1.7
target 1 A14C (mixed) RNA 1: CACCCGUGCAAAAAUGCAGGGGUCUAAAACUGAGCGGAUAACCUCUCUAUGG RNA 2: GGGAAUGGAUCCACAUCUACGAAUUCGUACCAUAGAGCGGUUAUCCGCUCACCGAGAUCGGAAGAGCACACGU	31 ± 7
target 1 insU 3' of 17,insG 3' of 9 (mixed) RNA 1: CACCCGUGCAAAAAUGCAGGGGUCUAAAACUGAGCGGAUAACCUCUCUAUGG RNA 2: GGGAAUGGAUCCACAUCUACGAAUUCGUACCAUAGUAGAGGUUAGUCCGCUCACCGAGAUCGGAAGAGCACACGU	38 ± 4
target 1 insA 3' of 21,insA 3' of 19 (mixed) RNA 1: CACCCGUGCAAAAAUGCAGGGGUCUAAAACUGAGCGGAUAACCUCUCUAUGG RNA 2: GGGAAUGGAUCCACAUCUACGAAUUCGUACCAAUAAGAGAGGUUAUCCGCUCACCGAGAUCGGAAGAGCACACGU	32.2 ± 2.4
target 1 U3C,G12C (mixed) RNA 1: CACCCGUGCAAAAAUGCAGGGGUCUAAAACUGAGCGGAUAACCUCUCUAUGG RNA 2: GGGAAUGGAUCCACAUCUACGAAUUCGUACCAUAGAGAGCUUAUCCGCCCACCGAGAUCGGAAGAGCACACGU	14 ± 2.3
